According to PMC8855783:

Legend:
[1] = molecular target: NBD P9 PAI-1 (UniProt P05121)
[2] = molecular target: wild-type PAI-1 (human) (UniProt P05121)
[3] = molecular target: wild-type PAI-1 (human) (UniProt P05121); remark: listed apart in the source
[4] = molecular target: wild-type PAI-1 (human) (UniProt P05121); remark: listed apart in the source

two-chain tissue-type plasminogen activator (enzyme)
Km ([PA] at half-saturation) of RCL insertion, no Nb, −Vn [1]: 0.22 µM | Km of RCL insertion, with Nb42, −Vn [1]: 1.2 µM | Km of RCL insertion, with Nb42 and Nb64, −Vn [1]: 1.4 µM | Km of RCL insertion, with Nb64, −Vn [1]: 0.17 µM | klim of RCL insertion (stopped-flow NBD fluorescence), no Nb, −Vn [1]: 1.5 s⁻¹ | klim of RCL insertion, with Nb42 and Nb64, −Vn [1]: 5.2 s⁻¹ | klim of RCL insertion, with Nb64, −Vn [1]: 1.4 s⁻¹ | klim/Km of RCL insertion, with Nb42 and Nb64, +Vn ((μmol/ L)^−1 s^−1) [1]: 1.1 | SI by SDS-PAGE, with Nb42, +Vn [2]: 1 | SI by SDS-PAGE, with Nb42, −Vn [2]: 1.1 | SI by SDS-PAGE, with Nb42 and Nb64, +Vn [2]: > 30 | SI by SDS-PAGE, with Nb42 and Nb64, −Vn [2]: 16.9 | SI by SDS-PAGE, with Nb64, +Vn [2]: > 30 | SI by SDS-PAGE, with Nb64, −Vn [2]: 15.6 | stoichiometry of inhibition (SI) by SDS-PAGE, no Nb, −Vn [2]: 1.1

two-chain urokinase-type plasminogen activator (enzyme)
klim/Km of RCL insertion, no Nb, −Vn ((μmol/ L)^−1 s^−1) [1]: 11.3 | klim/Km of RCL insertion, with Nb64, −Vn ((μmol/ L)^−1 s^−1) [1]: 14.7 | SI by SDS-PAGE, no Nb, −Vn [2]: 1.1 | SI by SDS-PAGE, with Nb42, +Vn [2]: 1.1 | SI by SDS-PAGE, with Nb42, −Vn [2]: 1.2 | SI by SDS-PAGE, with Nb42 and Nb64, −Vn [2]: 12.4 | SI by SDS-PAGE, with Nb64, +Vn [2]: 10 | SI by SDS-PAGE, with Nb64, −Vn [2]: 27 | percent substrate reaction by SDS-PAGE, with Nb64, +Vn [3]: 90% | percent substrate reaction by SDS-PAGE, with Nb64, −Vn [3]: 96%

B1: VHH-2g-42 (VHH)
VHH: QVQLVESGGGLVQPGGRLRLSCAASGFTFRTYAMQWYRQSPGTERELVAAISNIGGVTDYGDSVKGRFTISRDNAKTTVYLEMNSLKPEDTATYYCSAVRLPQRYWGRGTQVTVSS
IC50 of inhibition of PAI-1-wt activity, PAI-1/tPA, −Vn [4]: 87 nM

B2: VHH-2w-64 (VHH)
VHH: QVQLVESGGGLVQAGGSLRLSCAASGFTFDDYSIAWFRQAPGKEREGVSCISSSDGSAYYADSVKGRFTISSDNAKNTVYLQMNSLKPEDTAVYYCAAVWARVCRNPYDYWGQGTQVTVSS
IC50 of inhibition of PAI-1-wt activity, PAI-1/tPA, −Vn [4]: 16 nM | IC50 of inhibition of PAI-1-wt activity, PAI-1/uPA, −Vn [4]: 4.6 nM | IC50 of inhibition of the activity of Vn-bound PAI-1-wt, PAI-1/tPA [4]: 2.8 nM | IC50 of inhibition of the activity of Vn-bound PAI-1-wt, PAI-1/uPA [4]: 2 nM | maximum inhibition of PAI-1-wt activity, PAI-1/uPA, −Vn [4]: 88% | maximum inhibition of the activity of Vn-bound PAI-1-wt, PAI-1/tPA [4]: 93%
